No end group written: not given here. *: point of attachment. Biotin = O=C1N[C@H]2[C@H](CS[C@H]2CCCCC(=O)*)N1
B1: fetuin (other)
chain: IPLDPVAGYKEPACDDPDTEQAALAAVDYINKHLPRGYKHTLNQIDSVKVWPRRPTGEVYDIEIDTLETTCHVLDPTPLANCSVRQQTQHAVEGDCDIHVLKQDGQFSVLFTKCDSSPDSAEDVRKLCPDCPLLAPLNDSRVVHAVEVALATFNAESNGSYLQLVEISRAQFVPLPVSVSVEFAVAATDCIAKEVVDPTKCNLLAEKQYGFCKGSVIQKALGGEDVRVTCTLFQTQPVIPQPQPDGAEAEAPSAVPDAAGPTPSAAGPPVASVVVGPSVVAVPLPLHRAHYDLRHTFSGVASVESSSGEAFHVGKTPIVGQPSIPGGPVRLCPGRIRYFKI
modifications: sialylated glycans (multiple copies of the αNeu5Ac(2→3)βGal(1→4)βGlc- structure)

What was measured:
[1] = target: fetuin (Bos taurus (Bovine)) (UniProt P12763); assay: inhibition ELISA; competitor PT-biotin on coated fetuin
[2] = target: fetuin (Bos taurus (Bovine)) (UniProt P12763); assay: inhibition ELISA; competitor WGA-biotin on coated fetuin
[3] = target: fetuin (Bos taurus (Bovine)) (UniProt P12763); assay: inhibition ELISA; competitor PT-biotin on coated fetuin; peptide 1.0 mg/mL
[4] = target: fetuin (Bos taurus (Bovine)) (UniProt P12763); assay: inhibition ELISA; competitor MAL-biotin on coated fetuin; peptide 1.0 mg/mL
[5] = target: fetuin (Bos taurus (Bovine)) (UniProt P12763); assay: inhibition ELISA; competitor SNA-biotin on coated fetuin; peptide 1.0 mg/mL
[6] = target: fetuin (Bos taurus (Bovine)) (UniProt P12763); assay: inhibition ELISA; competitor WGA-biotin on coated fetuin; peptide 1.0 mg/mL
[7] = target: αNeuAc(2-3)βGal(1-3)βGlcNAc-BSA (bovine) (UniProt P02769); assay: direct ELISA, 0.5 µg biotinylated peptide on BSA conjugate coated at 50 µg/mL
[8] = target: αNeuAc(2-3)βGal(1-3)βGlcNAc-BSA with (1-4) αFuc (bovine) (UniProt P02769); assay: as above
[9] = target: αNeuAc(2-3)βGal(1-4)βGlcNAc-BSA (bovine) (UniProt P02769); assay: as above
[10] = target: αNeuAc(2-3)βGal(1-4)βGlcNAc-BSA with (1-3) αFuc (bovine) (UniProt P02769); assay: as above
[11] = target: αNeuAc(2-6)βGal(1-4)βGlcNAc-BSA (bovine) (UniProt P02769); assay: as above
[12] = target: pertussis toxin (Bordetella pertussis) (UniProt P04977)
[13] = target: fetuin (Bos taurus (Bovine)) (UniProt P12763); assay: inhibition ELISA; competitor PT-biotin on coated fetuin; peptide 4.4 mg/mL
[14] = target: fetuin (Bos taurus (Bovine)) (UniProt P12763); assay: inhibition ELISA; competitor MAL-biotin on coated fetuin; peptide 4.4 mg/mL
[15] = target: fetuin (Bos taurus (Bovine)) (UniProt P12763); assay: inhibition ELISA; competitor SNA-biotin on coated fetuin; peptide 4.4 mg/mL
[16] = target: fetuin (Bos taurus (Bovine)) (UniProt P12763); assay: inhibition ELISA; competitor WGA-biotin on coated fetuin; peptide 4.4 mg/mL
[17] = target: fetuin (Bos taurus (Bovine)) (UniProt P12763); assay: inhibition ELISA; competitor ACS2P1-biotin on coated fetuin; peptide 5520 µM
[18] = target: asialofetuin (Bos taurus (Bovine)) (UniProt P12763); assay: inhibition ELISA; competitor PT-biotin on coated asialofetuin; peptide 4.4 mg/mL
[19] = target: asialofetuin (Bos taurus (Bovine)) (UniProt P12763); assay: inhibition ELISA; competitor ACS2P1-biotin on coated asialofetuin; peptide 5520 µM
[20] = target: fetuin (Bos taurus (Bovine)) (UniProt P12763); assay: inhibition ELISA; competitor PT-biotin on coated fetuin; peptide 4.4 mg/ml (repeats Table II)
[21] = target: fetuin (Bos taurus (Bovine)) (UniProt P12763); assay: inhibition ELISA; competitor MAL-biotin on coated fetuin; peptide 4.4 mg/ml (repeats Table II)
[22] = target: fetuin (Bos taurus (Bovine)) (UniProt P12763); assay: inhibition ELISA; competitor WGA-biotin on coated fetuin; peptide 4.4 mg/ml (repeats Table II)
[23] = target: fetuin (Bos taurus (Bovine)) (UniProt P12763); assay: inhibition ELISA; competitor SNA-biotin on coated fetuin; peptide 4.4 mg/ml (Table II prints -2 ± 2)
pertussis toxin [24] = target: T1, pertussis toxin (Bordetella pertussis, UniProt P04977); assay: cell-based or functional assay
asialofetuin = target: T2, asialofetuin (Bos taurus (Bovine), UniProt P12763, glycans without sialic acid (asialo-)); assay: direct ELISA, 10 µg/ml biotinylated peptide on glycoprotein coated at 3 µg/ml
T2 sequence: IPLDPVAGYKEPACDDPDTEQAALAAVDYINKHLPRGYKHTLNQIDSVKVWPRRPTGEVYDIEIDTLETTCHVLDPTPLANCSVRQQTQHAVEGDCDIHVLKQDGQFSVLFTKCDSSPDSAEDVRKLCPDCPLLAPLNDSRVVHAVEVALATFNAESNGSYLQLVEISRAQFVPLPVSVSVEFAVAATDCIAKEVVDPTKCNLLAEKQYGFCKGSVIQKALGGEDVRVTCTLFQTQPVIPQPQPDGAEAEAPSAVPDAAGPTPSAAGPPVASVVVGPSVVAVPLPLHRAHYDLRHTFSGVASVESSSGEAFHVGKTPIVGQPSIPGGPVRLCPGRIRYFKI

asialoagalactofetuin = target: T3, asialoagalactofetuin (Bos taurus (Bovine), UniProt P12763, glycans without sialic acid and galactose (asialoagalacto-)); assay: as above
T3 sequence: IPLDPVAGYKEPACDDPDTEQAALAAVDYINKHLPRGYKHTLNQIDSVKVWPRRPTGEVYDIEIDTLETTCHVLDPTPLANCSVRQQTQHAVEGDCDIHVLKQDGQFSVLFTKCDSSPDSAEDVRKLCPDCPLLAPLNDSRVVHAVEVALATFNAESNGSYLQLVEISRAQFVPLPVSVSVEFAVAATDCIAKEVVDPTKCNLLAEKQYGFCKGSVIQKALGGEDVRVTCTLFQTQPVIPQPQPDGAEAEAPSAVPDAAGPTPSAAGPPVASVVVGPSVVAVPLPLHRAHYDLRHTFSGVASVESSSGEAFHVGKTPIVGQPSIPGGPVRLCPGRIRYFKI

[25] = target: αNeuAc(2-3)βGal(1-4)βGlcNAc-BSA (bovine, UniProt P02769, conjugated carbohydrate αNeuAc(2-3)βGal(1-4)βGlcNAc-); assay: direct ELISA, 0.1 µg biotinylated peptide on BSA conjugate coated at 50 µg/mL
[26] = target: αNeuAc(2-3)βGal(1-3)βGlcNAc-BSA (bovine, UniProt P02769, conjugated carbohydrate αNeuAc(2-3)βGal(1-3)βGlcNAc-); assay: as above
[27] = target: αNeuAc(2-6)βGal(1-4)βGlcNAc-BSA (bovine, UniProt P02769, conjugated carbohydrate αNeuAc(2-6)βGal(1-4)βGlcNAc-); assay: as above
[28] = target: αNeuAc(2-3)βGal(1-4)βGlcNAc-BSA with (1-3) αFuc (bovine, UniProt P02769, conjugated carbohydrate αNeuAc(2-3)βGal(1-4)[αFuc(1-3)]βGlcNAc-); assay: as above
[29] = target: αNeuAc(2-3)βGal(1-3)βGlcNAc-BSA with (1-4) αFuc (bovine, UniProt P02769, conjugated carbohydrate αNeuAc(2-3)βGal(1-3)[αFuc(1-4)]βGlcNAc-); assay: as above
fetuin [30] = target: B1; assay: inhibition ELISA; competitor WGA-biotin on coated fetuin
fetuin [31] = target: B1; assay: inhibition ELISA; competitor ACS2P1-biotin on coated fetuin; concentration giving -50% (called IC50 in paragraph 228, n=2)
pertussis toxin [32] = target: T1, pertussis toxin; assay: inhibition ELISA; fetuin against ACS2P1-biotin on immobilised PT

With WGA(62-73) (peptide) the IC50 [1] was 1500 µM, the IC50 [2] was 3400 µM and the percent change in binding activity [3] was -32%. For the same molecule, the percent change in binding activity [4] was -1%, the percent change in binding activity [5] was -3% and the percent change in binding activity [6] was -9%.

With “SPYGRC-biotin (peptide; other documents disagree on this pair)” the % binding relative to fetuin [7] was 97%, the % binding relative to fetuin [8] was 103% and the % binding relative to fetuin [9] was 120%. For the same molecule, the % binding relative to fetuin [10] was 120% and the % binding relative to fetuin [11] was 122%.

Work on SPYGRC (peptide) yielded a Maximal Inhibitory Concentration for Greater than 50% Inhibition (CHO cell clumping) [12] of 480 pg/mL.

With “SPYGRC (peptide; other documents disagree on this pair)” the percent change in binding activity [13] was 34%, the percent change in binding activity [14] was -16% and the percent change in binding activity [15] was -2%. For the same molecule, the percent change in binding activity [16] was 7%, the percent change in binding activity [17] was -24% and the percent change in binding activity [18] was 7%. It also gave a percent change in binding activity [19] of -54%, a % changes in binding activity [20] of 34% and a % changes in binding activity [21] of -16%. It also gave a % changes in binding activity [22] of 7% and a % changes in binding activity [23] of -2%.

For VAPGIVIPPKALFTQQGGAYGRC [S3P2], the “Maximal Inhibitory Concentration for Greater than 50% Inhibition (CHO cell clumping)” value (pertussis toxin [24]) was over 300 ng/mL.

PQEQITQHGSPYGRC (biotinylated at the terminal proline; C-terminal -CO--NH2; acetylated (position not given)) [ACS2P1-biotin] was tested, and the “% binding relative to fetuin” value (asialofetuin) was 45%, the “% binding relative to fetuin” value (asialoagalactofetuin) was 93% and the “% binding relative to fetuin” value [25] was 117%. For the same molecule, the “% binding relative to fetuin” value [26] was 70%, the “% binding relative to fetuin” value [27] was 94% and the “% binding relative to fetuin” value [28] was 84%. The “% binding relative to fetuin” value [29] was 84%.

For PKALFTQQGGAYGRC [S3P1], the “Maximal Inhibitory Concentration for Greater than 50% Inhibition (CHO cell clumping)” value (pertussis toxin [24]) was over 300 ng/mL.

For RLLASTNSRLCAVFVRDG [S3P9a], the “Maximal Inhibitory Concentration for Greater than 50% Inhibition (CHO cell clumping)” value (pertussis toxin [24]) was over 300 ng/mL.

For STPGIVIPPQEQITQHGSPYGRC [S2P2], the “Maximal Inhibitory Concentration for Greater than 50% Inhibition (CHO cell clumping)” value (pertussis toxin [24]) was over 300 ng/mL.

With PQEQITQHGSPYGRC (also: acetylated, site not given here) [ACS2P1] the IC50 (fetuin [30]) was 3250 µM and the IC50 (fetuin [31]) was 4.1 µM.

Molecule B1 has an IC50 (pertussis toxin [32]) of 50 µM.

— patent US5736143, “Anti-inflammatory, tolerogenic and immunoinhibiting properties of carbohydrate binding-peptides” (Alberta Research Council, dated 1998)
